According to the supplement of paper PMC7877785:
± gives the uncertainty stated by the source.

Test: self-splicing fitness, log relative to wild type (ln ratio); higher = more splicing; Tetrahymena group I intron in knt gene, E. coli kanamycin selection, DiMSum; sequences stand for … in CUCUCU…GGAGGGAAAAGUUAUCAGGCAUGCACCUGGUAGCUAGUCUUUAAACCAAUAGAUUGCAUCGGUUUAAAAGGCAAGACCGUCAAAUUGCGGGAAAGGGGUCAACAGCCGUUCAGUACCAAGUCUCAGGGGAAACUUUGAGAUGGCCUUGCAAAGGGUAUGGUAAUAAGCUGACGGACAUGGUCCUAACCACGCAGCCAAGUCCUAAGUCAACAGAUCUUCUGUUGAUAUGGAUGCAGUUCACAGACUAAAUGUCGGUCGGGGAAGAUGUAUUCUUCUCAUAAGAUAUAGUCGGACCUCUCCUUAAUGGGAGCUAGCGGAUGAAGUGAUGCAACACUGGAGCCGCUGGGAACUAAUUUGUAUGCGAAAGUAUAUUGAUUAGUUUUGGAGUACUCGUGGUCG
Outline: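 Pooled colonies went to amplicon sequencing on an Illumina HiSeq 2500 after six replicate transformations. The plates were LB agar with 100 μg/mL carbenicillin, 50 μM IPTG and 0.2% rhamnose, with or without 25 μg/mL kanamycin, incubated overnight at 37°C or 30°C. The E. coli BL21(DE3) library had all eight P1ex-region intron nucleotides randomised, the intron placed in the knt kanamycin-resistance gene on pET-22b(+). DiMSum fitness is the error-weighted combination of replicate fold changes, kanamycin against none, normalised to wild type.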

With UAGGAGCAAUAUUACGUUGG the “self-splicing fitness (ln)” value (37 °C) was -1.27 ± 0.28.

In the case of GCUUAGCAAUAUUACGUGAU, the “self-splicing fitness (ln)” value (30 °C) is reported as -0.4 ± 0.065 and the “self-splicing fitness (ln)” value (37 °C) is reported as -0.482 ± 0.068.

For AGACAGCAAUAUUACGACAG, the “self-splicing fitness (ln)” value (30 °C) was -3.42 ± 0.14 and the “self-splicing fitness (ln)” value (37 °C) was -0.41 ± 0.12.

In the case of AUGAAGCAAUAUUACGAAGG, the “self-splicing fitness (ln)” value (30 °C) is reported as -2.57 ± 0.18 and the “self-splicing fitness (ln)” value (37 °C) is reported as -0.569 ± 0.19.

With AGACAGCAAUAUUACGGUGC the “self-splicing fitness (ln)” value (30 °C) was -2.82 ± 0.18 and the “self-splicing fitness (ln)” value (37 °C) was -1.89 ± 0.18.

With AAACAGCAAUAUUACGGCAC the “self-splicing fitness (ln)” value (30 °C) was -1.72 ± 0.083 and the “self-splicing fitness (ln)” value (37 °C) was -0.057 ± 0.1.

With AACUAGCAAUAUUACGGGUC the “self-splicing fitness (ln)” value (30 °C) was -1.88 ± 0.24 and the “self-splicing fitness (ln)” value (37 °C) was -1.78 ± 0.22.

In the case of CUCUAGCAAUAUUACGAAAA, the “self-splicing fitness (ln)” value (37 °C) is reported as -1.12 ± 0.2.

For AUGAAGCAAUAUUACGCGUA, the “self-splicing fitness (ln)” value (30 °C) was -0.537 ± 0.061 and the “self-splicing fitness (ln)” value (37 °C) was -0.226 ± 0.07.

With CAGAAGCAAUAUUACGGGAA the “self-splicing fitness (ln)” value (30 °C) was -3.21 ± 0.23 and the “self-splicing fitness (ln)” value (37 °C) was -1.37 ± 0.25.

For UUUGAGCAAUAUUACGACAG, the “self-splicing fitness (ln)” value (30 °C) was -2.8 ± 0.15 and the “self-splicing fitness (ln)” value (37 °C) was -1.81 ± 0.18.

In the case of GAGCAGCAAUAUUACGUGAA, the “self-splicing fitness (ln)” value (30 °C) is reported as -0.549 ± 0.079 and the “self-splicing fitness (ln)” value (37 °C) is reported as -0.526 ± 0.13.

For AAUUAGCAAUAUUACGCAUU, the “self-splicing fitness (ln)” value (30 °C) was -2.52 ± 0.17 and the “self-splicing fitness (ln)” value (37 °C) was -2.69 ± 0.21.

For GACCAGCAAUAUUACGUCUC, the “self-splicing fitness (ln)” value (30 °C) was -0.562 ± 0.044 and the “self-splicing fitness (ln)” value (37 °C) was -0.159 ± 0.064.

With CGCUAGCAAUAUUACGUGAC the “self-splicing fitness (ln)” value (37 °C) was -2.52 ± 0.3.

For ACGUAGCAAUAUUACGGAGU, the “self-splicing fitness (ln)” value (30 °C) was -3.1 ± 0.1 and the “self-splicing fitness (ln)” value (37 °C) was -1.18 ± 0.079.

With AGCCAGCAAUAUUACGUCGU the “self-splicing fitness (ln)” value (30 °C) was -1.75 ± 0.072 and the “self-splicing fitness (ln)” value (37 °C) was -1.58 ± 0.086.

With GGUGAGCAAUAUUACGAGUA the “self-splicing fitness (ln)” value (30 °C) was -1.41 ± 0.21 and the “self-splicing fitness (ln)” value (37 °C) was -1.69 ± 0.29.

With GUACAGCAAUAUUACGGACC the “self-splicing fitness (ln)” value (30 °C) was -2.76 ± 0.13 and the “self-splicing fitness (ln)” value (37 °C) was -2.1 ± 0.2.

With AUAAAGCAAUAUUACGUCAA the “self-splicing fitness (ln)” value (30 °C) was -1.54 ± 0.088 and the “self-splicing fitness (ln)” value (37 °C) was -0.873 ± 0.094.

For AUAGAGCAAUAUUACGAUGA, the “self-splicing fitness (ln)” value (30 °C) was -2.14 ± 0.21 and the “self-splicing fitness (ln)” value (37 °C) was -1.75 ± 0.29.

For CAGAAGCAAUAUUACGCUCG, the “self-splicing fitness (ln)” value (30 °C) was -1.31 ± 0.11 and the “self-splicing fitness (ln)” value (37 °C) was -0.994 ± 0.15.

With ACCGAGCAAUAUUACGGGCA the “self-splicing fitness (ln)” value (30 °C) was -0.957 ± 0.1 and the “self-splicing fitness (ln)” value (37 °C) was -0.109 ± 0.11.

In the case of ACACAGCAAUAUUACGGCCC, the “self-splicing fitness (ln)” value (30 °C) is reported as -1.48 ± 0.13 and the “self-splicing fitness (ln)” value (37 °C) is reported as 0.924 ± 0.21.

For GUCAAGCAAUAUUACGACCU, the “self-splicing fitness (ln)” value (30 °C) was -3.31 ± 0.41 and the “self-splicing fitness (ln)” value (37 °C) was -0.756 ± 0.46.

With GUCGAGCAAUAUUACGCCAU the “self-splicing fitness (ln)” value (30 °C) was -2.99 ± 0.28 and the “self-splicing fitness (ln)” value (37 °C) was -2.4 ± 0.24.

For GGUGAGCAAUAUUACGGCAA, the “self-splicing fitness (ln)” value (30 °C) was -1.26 ± 0.34 and the “self-splicing fitness (ln)” value (37 °C) was -1.28 ± 0.42.

With CAGAAGCAAUAUUACGCUCA the “self-splicing fitness (ln)” value (30 °C) was -1.61 ± 0.11 and the “self-splicing fitness (ln)” value (37 °C) was 0.0994 ± 0.11.

In the case of AACCAGCAAUAUUACGCCUG, the “self-splicing fitness (ln)” value (30 °C) is reported as -1.8 ± 0.066 and the “self-splicing fitness (ln)” value (37 °C) is reported as -0.745 ± 0.087.

For GUAAAGCAAUAUUACGAUAC, the “self-splicing fitness (ln)” value (30 °C) was -0.815 ± 0.14 and the “self-splicing fitness (ln)” value (37 °C) was -0.547 ± 0.16.

For UGGAAGCAAUAUUACGUGCU, the “self-splicing fitness (ln)” value (30 °C) was -2.92 ± 0.19 and the “self-splicing fitness (ln)” value (37 °C) was -1.7 ± 0.17.

For CGUGAGCAAUAUUACGAGAA, the “self-splicing fitness (ln)” value (30 °C) was -3.1 ± 0.34 and the “self-splicing fitness (ln)” value (37 °C) was -2.08 ± 0.24.

With AACUAGCAAUAUUACGGGGA the “self-splicing fitness (ln)” value (30 °C) was -1.3 ± 0.12 and the “self-splicing fitness (ln)” value (37 °C) was -0.982 ± 0.13.

In the case of UGUUAGCAAUAUUACGCAAC, the “self-splicing fitness (ln)” value (30 °C) is reported as -2.82 ± 0.44.

For AAGAAGCAAUAUUACGAAGA, the “self-splicing fitness (ln)” value (30 °C) was -3.29 ± 0.19 and the “self-splicing fitness (ln)” value (37 °C) was -2.15 ± 0.19.

With AACUAGCAAUAUUACGCUAG the “self-splicing fitness (ln)” value (30 °C) was -4.12 ± 0.23 and the “self-splicing fitness (ln)” value (37 °C) was -2.81 ± 0.22.

With CUGAAGCAAUAUUACGCGGC the “self-splicing fitness (ln)” value (30 °C) was -0.11 ± 0.081 and the “self-splicing fitness (ln)” value (37 °C) was 0.053 ± 0.11.

For AGGAAGCAAUAUUACGAAAG, the “self-splicing fitness (ln)” value (30 °C) was -2.44 ± 0.23 and the “self-splicing fitness (ln)” value (37 °C) was -1.19 ± 0.35.

With AAACAGCAAUAUUACGGCCA the “self-splicing fitness (ln)” value (30 °C) was -1.41 ± 0.11 and the “self-splicing fitness (ln)” value (37 °C) was -0.0737 ± 0.12.

For GGUUAGCAAUAUUACGGAUG, the “self-splicing fitness (ln)” value (30 °C) was -0.648 ± 0.1 and the “self-splicing fitness (ln)” value (37 °C) was -0.92 ± 0.14.

For CCAGAGCAAUAUUACGUCCG, the “self-splicing fitness (ln)” value (30 °C) was -1.7 ± 0.12 and the “self-splicing fitness (ln)” value (37 °C) was 0.0963 ± 0.14.

For AUUCAGCAAUAUUACGUGCU, the “self-splicing fitness (ln)” value (30 °C) was -2.95 ± 0.2 and the “self-splicing fitness (ln)” value (37 °C) was -1.81 ± 0.3.

In the case of UUUGAGCAAUAUUACGUCCU, the “self-splicing fitness (ln)” value (30 °C) is reported as -3.03 ± 0.27 and the “self-splicing fitness (ln)” value (37 °C) is reported as -1.77 ± 0.2.

In the case of CGCAAGCAAUAUUACGUUGU, the “self-splicing fitness (ln)” value (30 °C) is reported as -3.69 ± 0.11 and the “self-splicing fitness (ln)” value (37 °C) is reported as -2.41 ± 0.12.

For AACUAGCAAUAUUACGAGUG, the “self-splicing fitness (ln)” value (30 °C) was -0.165 ± 0.059 and the “self-splicing fitness (ln)” value (37 °C) was -0.29 ± 0.074.

For ACACAGCAAUAUUACGACCC, the “self-splicing fitness (ln)” value (30 °C) was -0.35 ± 0.14 and the “self-splicing fitness (ln)” value (37 °C) was -0.0588 ± 0.2.

In the case of GCGCAGCAAUAUUACGGUCA, the “self-splicing fitness (ln)” value (30 °C) is reported as -1.41 ± 0.12 and the “self-splicing fitness (ln)” value (37 °C) is reported as -1.49 ± 0.099.

For UUAGAGCAAUAUUACGCUUA, the “self-splicing fitness (ln)” value (30 °C) was -0.675 ± 0.099 and the “self-splicing fitness (ln)” value (37 °C) was -0.447 ± 0.12.
